The source of these data is article PMC6762143.

Assay [1] addresses FRET-PGK1 (PGK1 labeled with mEGFP at the N-terminus and mCherry at the C-terminus) (yeast) (UniProt P00560).
Assay [2] deals with mEGFP (free), expressed in U-2 OS cells. In words: FRET or BRET; in living U-2 OS cells co-transfected with both proteins; only cells with about 1:1 expression; epifluorescence microscope, infrared laser temperature ramp 19-46°C; average of 15-30 cells. A general note: Bioluminescence resonance energy transfer reports proximity on the nanometre scale.
The target in assay [3] is ePGK3, expressed in U-2 OS cells (yeast) (UniProt P00560). Described as above.
For assay [4], the target named is ePGK2, expressed in U-2 OS cells (yeast) (UniProt P00560). The description is as above.

In turn, “Hsp70 (as used in the stopped flow PGK refolding assay) (from UniProt P0DMV8 1-641) (natural protein)” gave a folding efficiency of GuHCl-denatured efPGK1 in stopped flow refolding (intramolecular FRET) with 100 μM Hsp70 and 22.5 μM Hsp40, 2 mM ATP; 47% without Hsp70 in assay [1] of 57%.

Turning to “mCherry (free), expressed in U-2 OS cells”, the E FRET change in assay [2] stood at 2%.

Consider “mHsp70 (Hsp70 labeled by mCherry at the C-terminus), expressed in U-2 OS cells (from UniProt P0DMV8 1-641) (natural protein)”, for which the T0 (binding temperature midpoint) in assay [3] was found to be 37.1 °C; in assay [4], 39.1 °C. The overall E FRET change in assay [3] and in assay [4] was 8% in each case.
